In IntAct's records for PubMed 19171758:

B1: BAR/IMD domain-containing adapter protein 2 (Homo sapiens), Q9UQB8-4 (parent)
chain: MSLSRSEEMHRLTENVYKTIMEQFNPSLRNFIAMGKNYEKALAGVTYAAKGYFDALVKMGELASESQGSKELGDVLFQMAEVHRQIQNQLEEMLKSFHNELLTQLEQKVELDSRYLSAALKKYQTEQRSKGDALDKCQAELKKLRKKSQGSKNPQKYSDKELQYIDAISNKQGELENYVSDGYKTALTEERRRFCFLVEKQCAVAKNSAAYHSKGKELLAQKLPLWQQACADPSKIPERAVQLMQQVASNGATLPSALSASKSNLVISDPIPGAKPLPVPPELAPFVGRMSAQESTPIMNGVTGPDGEDYSPWADRKAAQPKSLSPPQSQSKLSDSYSNTLPVRKSVTPKNSYATTENKTLPRSSSMAAGLERNGRMRVKAIFSHAAGDNSTLLSFKEGDLITLLVPEARDGWHYGESEKTKMRGWFPFSYTRVLDSDGSDRLHMSLQQGKSSSTGNLLDKDDLAIPPPDYGAASRAFPAQTASGFKQRPYSVAVPAFSQGLDDYGARSMSSGSGTLVSTV

Variants of: B1
Conditions: with rac1_human RAC1, P63000

Row | Variant | effect of a mutation on the interaction
1 | MSLSRSEEMHELTENVYKTIMEQFNPSLRNFIAMGKNYEKALAGVTYAAKGYFDALVKMGELASESQGSKELGDVLFQMAEVHRQIQNQLEEMLKSFHNELLTQLEQKVELDSRYLSAALKKYQTEQRSKGDALDKCQAELKELRKKSQGSKNPQKYSDKELQYIDAISNKQGELENYVSDGYKTALTEERRRFCFLVEKQCAVAKNSAAYHSKGKELLAQKLPLWQQACADPSKIPERAVQLMQQVASNGATLPSALSASKSNLVISDPIPGAKPLPVPPELAPFVGRMSAQESTPIMNGVTGPDGEDYSPWADRKAAQPKSLSPPQSQSKLSDSYSNTLPVRKSVTPKNSYATTENKTLPRSSSMAAGLERNGRMRVKAIFSHAAGDNSTLLSFKEGDLITLLVPEARDGWHYGESEKTKMRGWFPFSYTRVLDSDGSDRLHMSLQQGKSSSTGNLLDKDDLAIPPPDYGAASRAFPAQTASGFKQRPYSVAVPAFSQGLDDYGARSMSSGSGTLVSTV [R11E;K143E] | disrupting interaction
